# Results from patent publication US20240324599A1, “PESTICIDAL ENZYMES FOR USE ON NEMATODES, INSECTS, AND MOLLUSKS” (priority 2023, published 2024).
# Legend:
# SCN nematodes = test: Foliar spray on strawberry leaf segments: nematode death; format: in vivo, Heterodera glycines; details: Table 40, 0.6% spray solution on strawberry leaf segments
# Description: To determine whether a nematicidal enzyme can cause nematode death when sprayed as a foliar treatment, a trial was performed using chitinase 19F (SEQ ID NO: 182). The free enzyme was produced as described in Example 2. A SCN hatchery was set up as described in Example 2, except that no bleach sterilization step was performed. Six days later, the concentration of hatched nematodes was determined. Leaves from Quinault strawberry plants (Fragaria× ananassa) were cut into square sections and placed in the wells of a 24-well plate with the abaxial side up. Twenty-four wells were set up for each treatment. Spray solutions were created with water alone and water plus fermentation broth with chitinase 19F (SEQ ID NO: 182). For the base strain control and chitinase solutions, 0.094 mL of fermentation broth was added to 15 mL of water (0.6% solution) to model a field spray application of 8 fl oz. per acre. Treatments were added to a small spray bottle and each leaf segment was sprayed approximately 3 times. After the leaves had dried, approximately 100 nematodes were added to each leaf segment. […] The number of alive and dead nematodes were counted for each well, and the average percentage of dead nematodes were calculated for each treatment. […]
# [1] = test system: Diamondback moth (Plutella xylostella); test: Diet-surface overlay (DSO) bioassay; format: in vivo
# Description: Diet-surface overlay bioassays are conducted with artificial diet mixes without antibiotics in 1.5 cm^2 cell bioassay trays(s). Artificial diets are commercially available from Southland Products Inc. Diets were prepared by dispersing 0.5 mL of molten diet to each 1.5 cm^2 cell. After solidification, 0.1 mL enzyme treatments were dispersed on top of diet in each cell and the tray was gently rocked in an orbital shaker to spread the liquid uniformly over the diet surface. Trays were placed under clean airflow until the surface of each cell was uniformly dried. One or two 16-cell sections were used per treatment (the number in larvae treated was 16 or 32).
# One healthy first instar larva was placed into each treatment cell, each 16-cell section was covered with a re-sealable lid and incubated at 27° C. and light-dark period of 16:8 hrs. After 7 days, and according to the species, the number of individuals in the following developmental categories was recorded.
# Diamondback moth (Plutella xylostella): Dead Larva (lack of movement), Larva Stage I (≤50% relative size), Larva Stage II (100% relative size, full size), Early Pupa (light green color), Late Pupa (light-dark brown color), and Adult.
# Negative/untreated controls were treated with filtered water and positive controls were treated with lethal doses of Bacillus thuringiensis subsp. Kurstaki (Btk) spores at 1000 ppm.
# [2] = Table 49, esterases, number of individuals, n = 32
Molecule,Average percentage of dead nematodes at 0 hours (SCN nematodes; water only 4%),Average percentage of dead nematodes at 24 hours (SCN nematodes; water only 5%),"Adult [1, 2]","Early Pupa [1, 2]","Larva Stage I [1, 2]","Larva Stage II [1, 2]","Late Pupa [1, 2]","Dead Larva ([1]; Table 49, esterases, number of individuals, n = 32, dose per treatment in U/mL Diet)",individuals at larva stage ([1]; text to Table 49),individuals with delayed larva-pupa development ([1]; text to Table 49)
"Streptomyces coelicolor Chitinase F (Chi19F) (protein, Chitinase F (Chi19F); Streptomyces coelicolor) ASCSSYHAWSADANYNTGDIVRYTDGKAYIAEHANPGYDPLISTWYWDPYACDGGSQTPVGNFVVSEAQFNQMFPGRNSFYTYSGLTAALSAYPGFANTGSDTTKKQEAAAFLANVSHETGGLVYIVEQNTANYPHYCDWNQPYGCPAGQAAYYGRGPIQLSWNFNYKAAGDALGIDLLGNPWLVQNDAAVAWKTGLWYWNTQSGPGTMTPHNAMVNGAGFGQTIRSINGSLECDGKNPAQVQSRVTKYQQFAQILGVSPGGNLYC",3%,12%,,,,,,,,
"Bacillus subtilis Esterase (EstB without signal sequence) (protein, listed as Bacillus subtilis, Esterase (EstB H191 without signal sequence)) ESVHNPVVLVHGISGASYNFFAIKNYLISQGWQSNKLYAIDFYDKTGNNLNNGPQLASYVDRVLKETGAKKVDIVAHSMGGANTLYYIKYLGGGNKIQNVVTLGGANGLVSSTALPGTDPNQKILYTSIYSLNDQIVINSLSRLQGARNIQLYGIGHIGLLSNSQVNGYIKEGLNGGGLNTN",,,0,4,3,8,17,0,34%,47%
